Experimental data published in patent publication EP4755372A1, “POLYMERIC MICELLE […] POLYMER CHAIN OF SELF-A[…]” (INSTITUTE OF SCIENCE TOKYO, priority 2023, dated 2025).

How the values were obtained:
[1] = Pharmacokinetics test in CT26 tumor-bearing mice, Gd concentration by ICP-MS; assay type: in vivo; details: caudal vein, Gd conc. 5 mg/kg; for blood retentivity and blood clearance: CT26 tumor-bearing mice; for tumor accumulation (Gd concentration): 24-48 hours after administration for SMDC-Gd4; for accumulation in different organs: liver, spleen, kidneys, brain, muscle, pancreas
Method: A tumor-bearing model was prepared by subcutaneously transplanting CT26 mouse colorectal cancer cells into mice (Balb/c, 6-week-old, female, SLC), and the model was used for pharmacokinetics testing. A cell suspension that had been subcultured (5% CO2, 37°C) using DMEM medium (containing 10% FBS and 1% penicillin streptomycin) was subcutaneously injected into the mouse dorsal region (1 × 10^6 cells/mouse, DMEM). At 10 days after administration, the tumor size was randomized and each sample was administered to the mouse through the caudal vein (Gd conc. 5 mg/kg, n = 6). After administration, blood was collected and the organs (tumors, liver, spleen, kidneys, pancreases, skin, muscles and brains) were dissected after specified time periods (1, 4, 8, 24 and 72 hours). After sampling, the plasma was collected by centrifugal separation of the blood to prepare a sample. The collected organs were pretreated (heated at 70% nitric acid, heating at 90°C for ≥1 hour, followed by dilution with ultrapure water), and the Gd concentration was measured using ICP-MS.
• Apparatus: Agilent 7700x ICP-MS/Agilent • Pretreatment apparatus: EYELA MG-2300/Tokyo Rikakikai Co., Ltd. • Standard solution: Gadolinium standard solution (Gd1000) for ICP analysis/FujiFilm-Wako • Results: Figs. 18 to 25

[2] = system: CT26 mouse colorectal cancer cells; assay: MRI R1 mapping in CT26 tumor-bearing mice; assay type: in vivo; details: for tumor/muscle ratio (T/M ratio) of the relaxation rate: Gd conc. 0.1 mmol/kg
Method: CT26 mouse colorectal cancer cells were subcutaneously grafted into mice (BALB/c nu/nu mice, 5-week-old, female, SLC) to create a tumor-bearing model which was used for MRI. A CT26 cell suspension that had been subcultured (5% CO2, 37°C) using DMEM medium (containing 10% FBS and 1% penicillin streptomycin) was subcutaneously injected into the mouse dorsal region (1 × 10^6 cells/mouse, Hank's balanced salt solution). At 1 week after administration, the tumor size was randomized, and then each sample was administered to the mouse through the caudal vein (Gd conc. 0.1, 0.05, 0.03 and 0.01 mmol/kg). MRI imaging (R1 mapping, T1-weighted image) was carried out under isoflurane anesthesia.
• Apparatus: Horizontal 1.0 T Bruker ICON MRI system/Bruker • Pulse sequence: Rapid acquisition with relaxation enhancement (RARE)-based inversion recovery sequence • Measuring conditions: Echo time (TE) = 10 ms; [formula] Repetition time (TR) = 10,000 ms; [formula] [formula] RARE Factor = 4; [formula] Field of view (FOV) = 28.0 × 16.0 mm^2; [formula] Slice thickness = 2.0 mm; [formula] Pixel count = 70 × 40; [formula] Resolving power (in-planeresolution) = 0.4 × 0.4 mm^2 [formula] Number of excitations = 1; [formula] • Fat suppression mode: OFF; • FOV saturation: ON • Measuring points: Before administration and 20, 40, 60 minutes and 24 hours after administration • Results: Figs. 38 to 42

[3] = system: CT26 mouse colorectal cancer cells; assay: Gd-NCT experiment (neutron irradiation of CT26 tumor-bearing mice); assay type: in vivo; details: 3 administrations, Gd conc. 0.1 mmol/kg, neutron irradiation 10 minutes
Method: A tumor-bearing model prepared by subcutaneously grafting CT26 mouse colorectal cancer cells into mice (Balb/c, 6-week-old, female, SLC) was used in an experiment for Gd-NCT. A CT26 cell suspension was injected into the mouse right femoral region (2 × 10^5 cells/mouse, DMEM). After approximately 2 weeks, each sample was administered 3 times through the caudal vein of the mouse (after 0, 24 and 48 hours, Gd conc. 0.1 mmol/kg, n = 5). A PBS-administered group was used as a comparative control. At 72 hours after the first administration, the holder in which the mouse had been placed was set on a 5 mm-thick thermoplastic sheet containing 40 wt% ^6LiF (96% ^6Li) for shielding of thermal neutrons and irradiated with neutron rays for 10 minutes only at the tumor site of the right femoral region (5 MW, Kyoto University Research Reactor, fluence: 2.87 × 10^12 to 3.29 × 10^12 thermal neutron/cm^2, 5.10 × 10^11 to 5.86 × 10^11 epithermal neutron/cm^2). The antitumor effect was confirmed by time-dependent change in tumor volume, and toxicity was confirmed by change in mouse body weight.

[4] = Evaluation of SMDC formation: DA from SEC-MALS in PBS and chloroform; assay type: physicochemical; details: DA = MwPBS/MwCHCl3; 5 mg/mL, 40°C
Method: The foldability in water of BZAm-PEGAn-CEAk(DOTA)j obtained by the procedure described above was evaluated by comparing the absolute weight-average molecular weight Mw calculated from size exclusion chromatography in aqueous solution (PBS) and in an organic solvent (chloroform or DMF) and a system utilizing a multi-angle light scattering detector (SEC-MALS). Data obtained from SEC-MALS were analyzed using a Zimm plot, with dn/dc being the value calculated by measuring the refractive index of 4 different samples with different concentrations in each solvent (4, 3, 2 and 1 mg/mL). DA was calculated by the following formula. DA = MwPBS/MwCHCl3
• Apparatus: JASCO Extrema HPLC system (LC-Net II/ADC, Co-4060, AS-4050, PU-4180/JASCO Corp. • Detector: UV-4070/JASCO Corp., RI-4030/JASCO Corp., DAWN 8 MALS detector/Wyatt Technology Corporation • Column: OHpak SB-804HQ column/Showa Denko K.K. • (column size: 8 mm × 300 mm, pore size: 20 nm, particle size: 10 µm, exclusion limit: 1 × 10^6 g/mol) • OHpak SB-806 MHQ column/Showa Denko K.K. • (column size: 8 mm × 300 mm, pore size: 1.5 µm, particle size: 13 µm, exclusion limit: 2 × 10^7 g/mol) • OHpak SB-G 6B Guard column/Showa Denko K.K. • Mobile phase: 137 mM NaCl, 2.7 mM KCl, 11.9 mM phosphate buffer (PBS), pH 7.4 Temperature: 40°C • Flow rate: 1 mL/min • Sample concentration : 5 mg/mL • Results: Table 21
• Apparatus: TOSOH HLC-8220 GPC system/Tosoh Corp. • Detector: DAWN HELEOS II MALS detector/Wyatt • Column: LF-804 column/Showa Denko K.K. • (column size: 8 mm × 300 mm, pore size: 300 nm, particle size: 6 µm, exclusion limit: 2 × 10^6 g/mol) • LF-G guard column/Showa Denko K.K. • Mobile phase: chloroform • Temperature: 40°C • Flow rate: 1 mL/min • Sample concentration : 5 mg/mL • Results: Table 21

[5] = SAXS measurement (Guinier plot particle size, Kratky plot); assay type: physicochemical; details: SAXS in aqueous solution, 10 mg/ml
Method: (§1) For the previously obtained BZAm-PEGAn-CEAk(DOTA)j and PEGAn-CEAk(DOTA)j, the particle size was confirmed by Guinier plot in small angle x-ray scattering (SAXS), and SMDC formation was confirmed by Kratky plot. The particle size was also measured by transmission electron microscopy (TEM) and dynamic light scattering. The surface potential was also measured.
• Apparatus: nano-viewer SAXS system/Rigaku Corp. • Solvent: Ultrapure water or DMF • Sample concentration : 10 mg/ml • Measuring temperature: room temperature • Results: Fig. 12 and Fig. 13

[6] = Zeta potential (surface potential) measurement; assay type: physicochemical; details: for surface charge (zeta potentials): ultrapure water
Method: as §1
• Apparatus: Malvern Zetasizer Nano ZSP/Malvem Panalytical • Solvent: Ultrapure water • Sample concentration : 10 mg/ml • Measuring temperature: room temperature • Results: Fig. 16 and Fig. 17

[7] = Relaxivity measurement (r1, r2), 0.47T NMR; assay type: physicochemical; details: compared with Gd-DOTA, 37°C
Method: Different polymer samples (Gd conc. 1 mM, 0.5 mM, 0.25 mM and 0.125 mM) were prepared, and the longitudinal relaxation time T1 and transverse relaxation time T2 were measured for each concentration. Using the obtained results, a plot of Gd concentration with respect to obtained relaxation time was drawn, and the longitudinal relaxivity r1 and transverse relaxivity r2 were derived from the slope of the fitted curve, based on the following formula. Here, (1/Ti)obs represents the measured relaxation time, and (1/Ti)d represents the relaxation time of the solvent. (1/Ti)obs = (1/Ti)d + ri [Gd]. i = 1, 2 [formula]
• Apparatus: Bruker minispec 0.47T NMR/Bruker • Solvent: Ultrapure water or BSA (10 mg/mL)-dissolved ultrapure water • Measuring conditions: Temperature: 37°C, receiver gain = 80-82, recycle delay = 2. • Results: Table 22

[8] = TEM particle size measurement; assay type: physicochemical; details: by folding; method not given
Method: as §1
• Apparatus: JEM-2100F TEM system/JEOL Corp. • Solvent: Ultrapure water • Pretreatment: Stained on formvar/carbon supported-copper grids • Measuring temperature: room temperature • Results: Fig. 14 and Fig. 15

[9] = Pharmacokinetics test for Gd-NCT (single or 3 administrations), Gd by ICP-MS; assay type: in vivo, mice
Method: A tumor-bearing model was prepared by subcutaneous grafting of CT26 mouse colorectal cancer cells into mice (Balb/c, 6-week-old, female, SLC) by the same procedure as for the SMDC-Gd pharmacokinetics test, and a pharmacokinetics test was conducted as an experiment for Gd-NCT. In this case, however, each sample was administered once or 3 times through the caudal vein of the mouse (0, 24 and 48 hours afterwards, Gd conc. 0.1 mmol/kg, n = 5), with blood collection and organ dissection and collection (tumors, liver and kidneys) 24 hours after the final administration. Each organ was pretreated by the same procedure as described above, and the Gd concentration was also measured in the same manner using ICP-MS. • Apparatus: Agilent 7700x ICP-MS/Agilent • Pretreatment apparatus: EYELA MG-2300/Tokyo Rikakikai Co., Ltd. • Standard solution: Gadolinium standard solution (Gd1000) for ICP analysis/FujiFilm-Wako • Results: Fig. 46 and Fig. 47

[10] = 3 doses given every 24 hours, after the final 24 hours

Compound	blood retentivity and blood clearance [1]	tumor accumulation (Gd concentration) [1]	tumor/muscle ratio (T/M ratio) of the relaxation rate ([2]; 1 hour after administration)	antitumor effect by Gd-NCT (tumor volume) [3]	accumulation in different organs [1]	DA [4]	Kratky plot (particle formation) [5]	surface charge (zeta potentials) [6]	longitudinal relaxivity (r1) [7]	further results
O=C([O-])CN1CCN(CC(=O)[O-])CCN(CC(=O)O)CCN(CC(=O)[O-])CC1.[Gd+3] [Gd-DOTA, gadoteric acid]	rapidly excreted from the blood	low	0.77	failed to exhibit sufficient antitumor activity	–	–	–	–	–	–
BZA100-PEGA70-CEA30(DOTA)17 [TP6]	more rapid	–	–	–	accumulated more abundantly in the liver, spleen and kidneys	0.53	form particles in aqueous solution	negative	higher	zeta potential [6]: -37 mV
BZA100-PEGA80-CEA20(DOTA)9 [TP5]	–	–	–	–	–	0.88	form particles in aqueous solution	–	higher	–
BZA100-PEGA90-CEA10(DOTA)4 [TP4]	equivalent	at least twice that of SMDC-Gd17 and PEGA-Gd4	1.17	suppressed tumor growth	equivalent to typical nanomedicine	0.91	form particles in aqueous solution	negative	higher	contrast effect in tumor tissue ([2]; longitudinal relaxation rate of tumors): high contrast effect; tumor/muscle ratio (T/M ratio) of the relaxation rate ([2]; within 24 hours after administration): 1.36; change in body weight after Gd-NCT [3]: without body weight loss; diameter [8]: about 6 nm; intratumoral Gd concentration [9, 10]: 91.2 ppm; intratumoral concentration in terms of ^157Gd groups [9, 10]: 14.3 ppm; intratumoral concentration in terms of ^157Gd groups ([9]; single dose, 24 hours after injection): 6.4 ppm; intratumoral Gd concentration ([9]; single dose, 24 hours after injection, Gd conc. 0.1 mmol/kg): 41.2 ppm
PEGA104-CEA30(DOTA)12 [PEGA-Gd12]	–	–	–	–	–	–	–	–	higher	–
PEGA124-CEA10(DOTA)4 [PEGA-Gd4]	equivalent	–	–	–	–	–	no peak could be confirmed	negative	higher	R1 value ([2]; during the 24 hours, compared with SMDC-Gd4): consistently lower than SMDC-Gd4
